Experimental data reported in paper PMC8329863 (Acta Crystallographica. Section D, Structural Biology, 2021).

Experiments:
[1] = target: T1, VanRSc (Streptomyces coelicolor, UniProt Q8CJW1); conditions: BeF3- formed from BeSO4 and NaF; Mg2+ present; phosphomimetic bound to Asp51 in the receiver domain; crystals at pH 7, room temperature
T1 construct: gene SCO3590

[2] = target: full-length VanR from Streptomyces coelicolor, activated state (beryllium fluoride bound at Asp51) (Streptomyces coelicolor); assay: crystal structure; activated VanRSc co-crystallized with beryllium fluoride, microbatch under oil, 2.5 M NaCl, 0.1 M Tris pH 7, 0.2 M MgCl2, room temperature; monomer in the asymmetric unit, dimer by crystal symmetry
[3] = target: T2, full-length VanR from Streptomyces coelicolor, inactive (unphosphorylated) state (Streptomyces coelicolor); assay: AUC; sedimentation equilibrium, 4°C, 18 000, 20 000 and 22 000 rev/min, without beryllium fluoride; global fit, monomer-dimer model (dimer to monomers); conditions: both partners purified
T2 chain: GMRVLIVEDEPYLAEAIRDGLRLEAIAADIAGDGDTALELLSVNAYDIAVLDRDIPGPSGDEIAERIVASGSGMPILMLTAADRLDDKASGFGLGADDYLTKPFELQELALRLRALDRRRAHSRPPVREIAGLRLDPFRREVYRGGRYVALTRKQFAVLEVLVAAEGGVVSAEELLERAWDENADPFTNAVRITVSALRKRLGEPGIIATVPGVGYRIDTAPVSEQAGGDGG

[4] = target: T2, full-length VanR from Streptomyces …; assay: AUC; sedimentation velocity, 20°C, 50 mM Tris pH 7.5, 50 mM NaCl, 10 mM MgCl2, without beryllium fluoride; 36.5 µM monomer; monomer-dimer model (dimer to monomers); conditions: both partners purified

[F][Be-]([F])[F] [beryllium fluoride]
X-ray crystallography, 2.03 A co-crystal structure [1]: The Be atom is bound to one of the carboxylate O atoms of Asp51

full-length VanR from Streptomyces coelicolor, activated state (beryllium fluoride bound at Asp51) (natural protein)
stoichiometry N [2]: 2

B1: full-length VanR from Streptomyces coelicolor, inactive (unphosphorylated) state (natural protein)
chain: T2 chain
modifications: unphosphorylated at Asp51 (paper numbering; entity position 52), no beryllium fluoride; Mg2+ present (10 mM MgCl2 in AUC). Wild-type residues 1-231 plus the N-terminal Gly left after SUMO cleavage. …
Kd [3]: 37 µM
Kd [4]: > 1000 µM
